Data from article PMC4735030.

Target: porcine colonic mucins (porcine)
Experiment: SPR

## recombinant BL0675 A type with a C-terminal 6 x His tag (natural protein)
  Kd: 98.2 nM
  koff: 0.00279 s⁻¹
  kon: 28400 M⁻¹ s⁻¹
